Experimental data as given in paper PMC4742278, “BS69/ZMYND11 C-Terminal Domains Bind and Inhibit EBNA2” (PLoS Pathogens, 2016).

Columns and labels:
[1] = target: BS69/ZMYND11 coiled-coil-MYND tandem domains (BS69_(CC-MYND), residues 440–562) (mouse); assay: ITC; peptide (~1 mM) titrated into BS69_(MYND) or BS69_(CC-MYND) (~0.1 mM) at 5°C; 20 mM Tris-HCl pH 7.5, 100 mM NaCl, 2 mM DTT; one-site fitting model
[2] = target: BS69 MYND domain (BS69_(MYND), residues 516–562) (mouse); assay: as above

Binder: H-EAPILFPDDWY-NH2 [EBNA2_(435–445) peptide (NH2-…-CONH2)]
- Kd [1]: 34.9 µM
- Kd [2]: 93.4 µM
